Data published in the RNAGym collection of RNA variant scans (doi:10.1073/pnas.2313332121).

B1: TPR t1 (parent)
chain: GACCAAUCUGCCCUCAGAGCUCGAGAACAUCUUCGGAUGCAGAGGAGGCAGGCUUCGGUGGCGCGAUAGCGCCAACGUCCUCAACCUCCAAUGCAUCCCACCACAUGAUGAUGCCUGAAGAGCCUUGGUUUUUUG

Variants of: B1
Test: polymerase ribozyme fitness, log enrichment relative to wild type (log ratio); higher = more active; in vitro selection for triplet polymerase activity
Outline: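 Fitness measures genotype enrichment against wild-type enrichment on a logarithmic scale, with inverse-variance-weighted averaging of replicates. The logarithm is base 2, and genotypes were kept only with ≥10 input reads and ≥1 read per output in Illumina sequencing. The sequenced libraries came from one triplicate in vitro selection round, including frozen incubation at −7 °C, of PCR-built, transcribed mutant libraries of each subunit of a heterodimeric triplet polymerase ribozyme.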

Variant	polymerase ribozyme fitness (log ratio)
G110U U116A	-3.44
C15G G45C C53U A91U	-5.56
A43C G47A C56U G57A C62U A103C	-6.45
G47A U131C	-1.16
A66U C124G	0.671
C3G U129C	-1.37
G10C G71U C86U	-1.57
C34A G61A C94A	-3.89
U9C C79A G128C	-2.56
C72G U81C	-1.12
U21A A90C	-1.58
A2U C56A A83G	-4.24
C79G G127A	-2.38
C11G C72U	0.401
C49G C101G	-1.92
G61C A119U	-1.89
A2U C8U G45A A95G G120A	-0.217
G36U G69U U96C C101U U126A	-2.59
C72U G113U G120U U130C	-3.5
C104U A111G	0.178
G19U C70U	-3.23
A41U C49G	-2.03
C20U G52C C114A C123U	-4.27
C56G G57U G65A C101G A111C	-6.81

Variant	polymerase ribozyme fitness (log ratio)
C12A G48U G71C	-1.56
A103U C114U	-4.99
G36A G61A G77A	-1.53
A37C G128C	-3.32
C70U U87C C123G	2.6
A5U C72U C114U	-2.7
C72G C73U G93C A111C G122U G135A	-4.92
A5U A46U G71C U81A	-4.5
A50G C104A	-1.49
A6U C8A C12A A41U C79A C89A C94U C101U U116G C123U	-6.77
C8U G60C U129C	-0.854
C40G A43U C73A U126C	-3.57
A83G A84C	-1.03
C62U G69A C97G G110C	-6.75
G113U G120C	-1.71
C62U G63U U78G	-3.96
G23U C62A C99A G113U G127C	-5.56
A41C C104A G122A	-3.8
A18U A74U U78C A111C	-4.61
G48U C124U U125A	0.397
U7C C85A C104U U116C	-1.6
C20U A46G C94U G107A U109G G120A	-5.88
C115G C124U	-1.13
C4A A74U	-1.77

Variant	polymerase ribozyme fitness (log ratio)
A74C C101G U109A	-6.47
A16G C49A C79U G93A G117U C123G	-2.9
G61A U78C C80U	-5.11
A90G A121C	1.62
C8G C70G A100C C123A	-2.51
G71C U87G C98U G113C	-4.17
A2U U106A G128U U131C	-1.21
C3U G48A C97A	-5.8
A43G G71A C82A G120U A121C	-3.35
G45A A50G C62U	-0.502
C114U U133G	-0.517
U7C C8G G61A C79A G110A	-2.75
C88A C104U G127A	-1.76
C20U A24U U32C C85U C101G G110U	-6.93
A50U A118C A121G U129A	-1.76
A41U U116C C124U U130A	-3.9
C11G C114U C124G	-2.07
C72G C88U	-0.692
G61U C62U	-3.5
C8U A100U	-0.0529
U87A U130A	-0.662
U9G C98A	-5.08
G19U A26U C114A	-1.45
C97G U129A	-5.28

Variant	polymerase ribozyme fitness (log ratio)
C3G C12A C114A G128C	-3.31
C49U C73A C102U	-2.56
C4U C72U	-0.857
C11A G77A A84U G122A	-1.06
A2C C56A G63A	-4.79
C34G G35C G63U A111U	-5.76
U21A C102G G113U A118U U129G	-6.08
C15U A41U A90C C115G	-4.18
C49G A100C C101U	-1.62
U9A G19C A27G U106C	-4.96
A18C G35U A103U C115U	-4.68
U9A C70U A74G C104A C123A	-3.22
A46G C88U	-0.84
C13A G93C	-2.4
A18C C40A U78G C82G A121U U130A	-3.87
U9A C62A C86A C98U	-2.77
U7A C49U C53U U59A C70U C76A	-2.44
C62A U87A	-1.8
C4A C13U A24C C40G A111G	-5.59
G35A C73A U78G A90G C115G A121C	-4.57
C40G C56G	-1.42
C4U A43C G45A G69U C124A	0.59
G42U G110A	-2.74
C40A A41G C70U	-1.7

Variant	polymerase ribozyme fitness (log ratio)
C12G G45U	-0.996
A18U C28A C85G A111U	-4.7
U92G U106A	-1.97
G69U C97G	-3.33
C34G U87G U109A	-6.29
A27U A50G U133A	-2.6
G44U C72A G127C U131C	-3.12
C49G A66C C101G	-4.2
A6C G19C A43U A50C U96G	-4.2
A27C G39A A41G	-4.08
G71C A84U C94U	-1.84
C34U G61C	-4.48
G45A G51C	-5.06
A27U G36A A41C C56A G61A G120A	-5.6
G45A C88U	-0.289
U87A C102A	-2.11
A6C C73U C89U G113A	-2.7
C31U A68U C114A G117C C124A	-5.73
C20A A37U G61A A121C G122A	-1.31
U7G C73G C89A C104U A119U	-2.52
C3A A27C G45A C53A C123U	-4.25
C8G C72G	0.418
G44C G58A A91G U92C	-3.08
G127U	-0.639

Variant	polymerase ribozyme fitness (log ratio)
G42A G47C C82U A84G	-3.91
U9C G58C C114A G127U	-3.7
G58U C64U U78C U96C C124U U126C U133G	-0.65
G60A C114G	-2.53
A46G C56G	0.084
U55G C99U	-2.45
C28G G77U U78A C82U	-3.54
A84U U132C	-0.244
U92G G117C U129C U133C	-4.13
A2C C4G G39C G69U C102U	-2.39
A29G G110A	-2.21
G36C G42C G47C C53G C56U G61U C72U C86G U116C	-4.72
U54A A74U C124G	0.443
C40G C56A G57U C70A C72U G77A	-4.22
C15U G52A	-1.6
C12A C62A U112A C123G	-1.09
A16G C34A	-3.22
A50U G60A C123G	1.09
A46U C123A	-0.661
C49G G71A C124G	0.642
C8G C12A G39A C85U U112A G113C	-1.36
A74C A100C	-1.06
C13U C15U C20U U81A A90C C115U	-4.72
G60A G93A U131A	-0.952

Variant	polymerase ribozyme fitness (log ratio)
C62U G117C G128A	-6.43
C49A C86A	-2.07
C70U G93A	-0.708
C94A C123G	-0.728
G47A C53A C97A A119G C123A	-4.34
A6C C72G	-0.682
U32A G45C U54A G61U	-3.78
A46U C73U G110A	-2.67
C8G A29U G60A G77C	-2.46
G60U G127A	-0.768
C40A A66C G77A	-3.74
G63C C72A C79G	-5.56
A18U C56U C123G U129A	-1.91
A100U G113U C124U	-3.92
A50G C53G G60U C72U C101A	-3.8
U21A U54C G61A A111G C123U	-5.38
C76U U112A	0.984
G25C G71A C73A C89A G110A	-6.79
C4A U14A	-5.35
G60U G71C	-3.38
G10A C13A A18G	-6.95
G10U C20A C56U	-2.94
C11G A29G C94G	-2.16
